Test results from the supplement of paper PMC9233669.
Variants at the floor of the assay were thinned out.

Legend:
biotinyl-Phe-oxazolone = assay: self-aminoacylation, catalytic enhancement (BFO) (fold over background); higher = more active; k-Seq, kA / k0A0; sequences stand for … in GGGAAUGGAUCCACAUCUACGAAUUC…UUCACUGCAGACUUGACGAAGCUG
Outline: (§1)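 Catalytic enhancement equals the median kA over the uncatalyzed rate, the latter read from the low-activity peak of a bimodal Gaussian fit. Values of kA came from fitting each sequence's fraction reacted to a pseudo-first-order model, with 1000 bootstraps. Reacted RNA was captured with streptavidin and quantified by triplicate qPCR and Illumina sequencing after 90 minutes at room temperature with 2–1250 μM biotinyl-aminoacyl-oxazolone and 0.43 μM mutagenized RNA pools bearing a 21-nt variable region.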

biotinyl-Ile-oxazolone = assay: self-aminoacylation, catalytic enhancement (BIO) (fold over background); higher = more active; k-Seq, kA / k0A0; sequences stand for … in GGGAAUGGAUCCACAUCUACGAAUUC…UUCACUGCAGACUUGACGAAGCUG
Outline: as §1

biotinyl-Met-oxazolone = assay: self-aminoacylation, catalytic enhancement (BMO) (fold over background); higher = more active; k-Seq, kA / k0A0; sequences stand for … in GGGAAUGGAUCCACAUCUACGAAUUC…UUCACUGCAGACUUGACGAAGCUG
Outline: as §1

biotinyl-Val-oxazolone = assay: self-aminoacylation, catalytic enhancement (BVO) (fold over background); higher = more active; k-Seq, kA / k0A0; sequences stand for … in GGGAAUGGAUCCACAUCUACGAAUUC…UUCACUGCAGACUUGACGAAGCUG
Outline: as §1

biotinyl-Leu-oxazolone = assay: self-aminoacylation, catalytic enhancement (BLO) (fold over background); higher = more active; k-Seq, kA / k0A0; sequences stand for … in GGGAAUGGAUCCACAUCUACGAAUUC…UUCACUGCAGACUUGACGAAGCUG
Outline: as §1

biotinyl-Trp-oxazolone = assay: self-aminoacylation, catalytic enhancement (BWO) (fold over background); higher = more active; k-Seq, kA / k0A0; sequences stand for … in GGGAAUGGAUCCACAUCUACGAAUUC…UUCACUGCAGACUUGACGAAGCUG
Outline: as §1

Row | Sequence | self-aminoacylation (biotinyl-Phe-oxazolone) | self-aminoacylation (biotinyl-Ile-oxazolone) | self-aminoacylation (biotinyl-Met-oxazolone) | self-aminoacylation (biotinyl-Val-oxazolone) | self-aminoacylation (biotinyl-Leu-oxazolone) | self-aminoacylation (biotinyl-Trp-oxazolone)
1 | UUUACCCUGGUCAUCUAGUGA [Fam2.1 aminoacylation ribozyme variant] | 46.3 | 4.72 | 8.71 | 4.43 | 8.63 | 10.9
2 | GUUUCCCUGGUCAUCGAGUGA [Fam2.1 aminoacylation ribozyme variant] | 48.7 | 6.97 | 14.6 | 7.85 | 14.8 | 16.2
3 | AUUACCCUGCCCAUCGAGUGA [Fam2.1 aminoacylation ribozyme variant] | 38.9 | 2.94 | 5.7 | 3.23 | 5.53 | 6.52
4 | AUGCACCUAGGUCGUCGGGUG [Fam2.2 aminoacylation ribozyme variant] | 8.26 | 1.68 | 1.75 | 1.8 | 2.42 | 2.39
5 | GUUCACCUAGGUCAUCGGAUG [Fam2.2 aminoacylation ribozyme variant] | 0.879 | 0.815 | 0.701 | 0.979 | 0.728 | 0.5
6 | AUUCACCUACGUCAUCGGGCG [Fam2.2 aminoacylation ribozyme variant] | 16.3 | 2.62 | 3.42 | 2.97 | 3.26 | 2.75
7 | AUUCGCUUAGGUCAUCGGGUG [Fam2.2 aminoacylation ribozyme variant] | 52.5 | 4.11 | 7.02 | 4.24 | 8 | 6.47
8 | CCACACUUCUAGCAAUAGGUC [Fam1B.1 aminoacylation ribozyme variant] | 0.978 | 0.629 | 0.554 | 0.666 | 0.53 | 0.429
9 | CCCCACUUCAAGCAAUCGGGC [Fam1B.1 aminoacylation ribozyme variant] | 4.2 | 2.37 | 3.15 | 2.92 | 2.43 | 5.69
10 | AUGACCCUGGUCAUCGAGUUA [Fam2.1 aminoacylation ribozyme variant] | 9.13 | 2.81 | 6.25 | 2.44 | 5.29 | 3.71
11 | CCACACUUCAAGCAGACGGUC [Fam1B.1 aminoacylation ribozyme variant] | 0.719 | 0.686 | 0.607 | 0.57 | 0.605 | 0.539
12 | AAGUUUGCACAUAGUCGCAAG [Fam3.1 aminoacylation ribozyme variant] | 0.76 | 0.804 | 0.656 | 0.73 | 0.586 | 0.682
13 | AUUACCUUGGUCAUCGAGUCA [Fam2.1 aminoacylation ribozyme variant] | 0.473 | 0.854 | 0.691 | 0.81 | 0.786 | 0.599
14 | AUUGACCUAGGUCAUCUGGUG [Fam2.2 aminoacylation ribozyme variant] | 8.46 | 1.83 | 1.9 | 1.7 | 2.42 | 2.27
15 | AUUCACCUAGGUCAUGGGGCG [Fam2.2 aminoacylation ribozyme variant] | 1.37 | 2.18 | 2.3 | 2.27 | 3.14 | 2.15
16 | AAGUUCGCUAAUAAUCGCAAG [Fam3.1 aminoacylation ribozyme variant] | 1.54 | 1.24 | 1.24 | 1.31 | 1.02 | 0.758
17 | AUUCACCUAGGUAAUCGGAUG [Fam2.2 aminoacylation ribozyme variant] | 0.527 | 0.61 | 0.585 | 0.524 | 0.546 | 0.594
18 | AUUCCCCGAGGUCAUCGGGUG [Fam2.2 aminoacylation ribozyme variant] | 188 | 12.5 | 22.7 | 14 | 29.9 | 20.2
19 | AAGUUGGCAAAUAGUCGCAAG [Fam3.1 aminoacylation ribozyme variant] | 2.07 | 1.57 | 1.04 | 1.41 | 1.32 | 2.03
20 | CCACACUUCAAGCAAUCGACC [Fam1B.1 aminoacylation ribozyme variant] | 1.25 | 0.623 | 0.518 | 0.751 | 0.399 | 0.447
21 | CUACUUCAAACAAUGGGCCUG [Fam1A.1 aminoacylation ribozyme variant] | 1.67 | 1.4 | 1.25 | 1.16 | 1.19 | 0.896
22 | CCACACGUCAAGCAAUCUGUC [Fam1B.1 aminoacylation ribozyme variant] | 0.326 | 0.54 | 0.472 | 0.543 | 0.422 | 0.24

Row | Sequence | self-aminoacylation (biotinyl-Phe-oxazolone) | self-aminoacylation (biotinyl-Ile-oxazolone) | self-aminoacylation (biotinyl-Met-oxazolone) | self-aminoacylation (biotinyl-Val-oxazolone) | self-aminoacylation (biotinyl-Leu-oxazolone) | self-aminoacylation (biotinyl-Trp-oxazolone)
23 | UCACACUUCGAGCAAUCGGUC [Fam1B.1 aminoacylation ribozyme variant] | 1.23 | 0.91 | 0.953 | 1.05 | 0.931 | 1.12
24 | AUUAUCCUGGUCAUCGAGUGG [Fam2.1 aminoacylation ribozyme variant] | 6.09 | 2.19 | 5.06 | 2.27 | 5.03 | 4.05
25 | UAGUUUGCUGAUAGUCGCAAG [Fam3.1 aminoacylation ribozyme variant] | 2.35 | 1.61 | 0.993 | 1.47 | 1.08 | 1.61
26 | AUUACCCUGGUUAUCGGGUGA [Fam2.1 aminoacylation ribozyme variant] | 94.3 | 5.12 | 12.8 | 6.66 | 13.6 | 14.8
27 | AUUCACCUCGGUAAUCGGGUG [Fam2.2 aminoacylation ribozyme variant] | 31.8 | 4.01 | 4.55 | 3.32 | 6.13 | 4.41
28 | CUACUGCAAACAAUGGGUCUG [Fam1A.1 aminoacylation ribozyme variant] | 1.5 | 1.25 | 1.2 | 1.08 | 1.13 | 1.12
29 | ACACUUCAAACAAUCGGUCUG [Fam1A.1 aminoacylation ribozyme variant] | 75.9 | 1.7 | 1.57 | 1.43 | 2.16 | 33.3
30 | AUACACCGAGGUCAUCGGGUG [Fam2.2 aminoacylation ribozyme variant] | 28.8 | 4.24 | 5.37 | 4.34 | 4.55 | 4.15
31 | AUUACCUUGGUCAUCGAGUUA [Fam2.1 aminoacylation ribozyme variant] | 0.913 | 1.18 | 1.19 | 1.03 | 0.814 | 0.524
32 | AAAUUUGCCAAUAGUCGCAAG [Fam3.1 aminoacylation ribozyme variant] | 2.17 | 1.77 | 1.69 | 1.65 | 1.76 | 2.14
33 | AUUCACCUAGGUCAUACGGUG [Fam2.2 aminoacylation ribozyme variant] | 55.7 | 4.38 | 7.59 | 4.41 | 10.3 | 6.75
34 | AUUCACCUAGGUCUUCGGGUU [Fam2.2 aminoacylation ribozyme variant] | 13.8 | 2.82 | 3.09 | 2.98 | 3.66 | 2.94
35 | CCACACUUCUAGCAAUUGGUC [Fam1B.1 aminoacylation ribozyme variant] | 0.539 | 0.611 | 0.638 | 0.687 | 0.636 | 0.401
36 | CCACACUUCCAGCAAUCGGUC [Fam1B.1 aminoacylation ribozyme variant] | 1.03 | 1.14 | 0.882 | 1.25 | 0.9 | 0.872
37 | AUUCAUCUAGGUCCUCGGGUG [Fam2.2 aminoacylation ribozyme variant] | 49.6 | 4 | 5.21 | 3.9 | 8.62 | 5.66
38 | CUACUUCGAACAAUCGUUCUG [Fam1A.1 aminoacylation ribozyme variant] | 0.268 | 0.432 | 0.453 | 0.49 | 0.457 | 0.368
39 | AUUCACCCAGGUCAUCGGGUC [Fam2.2 aminoacylation ribozyme variant] | 6.42 | 1.14 | 1.5 | 1.88 | 1.92 | 1.39
40 | AUUAGCCUGGUCAACGAGUGA [Fam2.1 aminoacylation ribozyme variant] | 18.2 | 3.71 | 5.21 | 3.45 | 5.61 | 6.82
41 | CUACUUCAAACAAUCGAACUG [Fam1A.1 aminoacylation ribozyme variant] | 0.805 | 0.683 | 0.617 | 0.595 | 0.595 | 0.468
42 | AAGUUUGAUAAUAGUCCCAAG [Fam3.1 aminoacylation ribozyme variant] | 0.838 | 0.613 | 0.47 | 0.515 | 0.423 | 0.489
43 | AUUAGCCUGGUCAUCCAGUGA [Fam2.1 aminoacylation ribozyme variant] | 10.8 | 2.69 | 4.07 | 2.62 | 4.36 | 5.21
